US7479478B2, “Human parathyroid hormone modifications, preparation and use” (The General Hospital Corporation, priority 1998, dated 2009)
No end group written: not given here.

Tests used:
Assay type in all cases: cell-based
human PTH-1 receptors [1] = target: T1, human PTH-1 receptors (Homo sapiens, UniProt Q03431); experiment: PLC activation (IP3 formation) in HKRK B7 cells; conditions: HKRK B7 cells; up to 1000 nM or 10 μM
T1 construct: expressed in transfected cells
T1 sequence (Q03431 27-593): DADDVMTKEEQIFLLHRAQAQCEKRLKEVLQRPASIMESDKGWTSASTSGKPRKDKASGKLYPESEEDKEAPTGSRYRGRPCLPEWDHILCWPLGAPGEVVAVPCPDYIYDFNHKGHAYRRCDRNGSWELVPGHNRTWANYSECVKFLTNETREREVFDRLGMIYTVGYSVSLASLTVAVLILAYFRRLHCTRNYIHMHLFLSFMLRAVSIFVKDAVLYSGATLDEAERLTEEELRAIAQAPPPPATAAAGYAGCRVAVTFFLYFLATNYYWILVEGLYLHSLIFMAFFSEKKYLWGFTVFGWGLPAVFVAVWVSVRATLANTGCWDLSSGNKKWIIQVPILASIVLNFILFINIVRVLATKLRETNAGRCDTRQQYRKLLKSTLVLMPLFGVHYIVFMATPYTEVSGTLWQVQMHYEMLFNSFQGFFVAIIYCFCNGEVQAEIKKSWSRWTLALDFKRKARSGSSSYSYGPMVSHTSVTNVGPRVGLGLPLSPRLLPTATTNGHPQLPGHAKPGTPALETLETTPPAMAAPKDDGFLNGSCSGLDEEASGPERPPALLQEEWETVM
Experimental: (§1) HKRK B7 or EW5 cells (32), subclones of LLC-PKI renal epithelial cells that stably express human or rat PTH-1 receptors (950,000 and 320,000 receptors/cell, respectively), were maintained under 5% CO2 in air in Dulbecco's modified essential medium containing 7% fetal bovine serum (FBS) and 1% penicillin/streptomycin (GIBCO-BRL, Grand Island, N.Y.). HEK-293 and COS-7 cells were cultured similarly, except that 10% FBS was used in the medium. Cells were seeded into 24-well plates two days before assay at a density of 2-2.5×10^5 cells/well (HKRK B7 or EW 5 cells) or 6×10^5 cells/well (in 6-well plates) (HEK-293 cells). In experiments involving HEK-293 cells, DNA transfections were performed 24 hr after plating and inositol radiolabel was added 24 hr thereafter (see below). COS-7 cell transfections were performed as previously described (Gardella, T. J., et al., Endocrinology 132(5):2024-2030 (1993))
PLC was activated by PTH agonists in the presence of 30 mM LiCl at 37° C. for 30 min after 16 hr of labeling with [^3H]myo-inositol (3 uCi/ml) in serum-free medium containing 0.1% bovine serum albumin. The reactions were stopped by rapid aspiration and addition of cold 5% TCA. Water-soluble radiolabeled inositol trisphosphate (IP3) was isolated after ether extraction by ion-exchange chromatography (Guo, J., et al., Endocrinology 136(9):3884-3891 (1995)). In experiments involving HEK 293 cells, cells previously transfected with human PTHR cDNA (in the pcDNA1 expression vector HKRK) using Lipofectamine (Gibco BRL) were labeled with [^3H]myo-inositol and assayed as described above, except that total water-soluble [^3H]inositol polyphosphates were collected as a single fraction from the ion-exchange columns.

human PTH-1 receptors [2] = target: T1, human PTH-1 receptors; experiment: PLC activation in COS-7 cells expressing human PTH-1 receptors; conditions: up to 1000 nM
Experimental: as §1
(§2) PLC was activated by PTH agonists in the presence of 30 mM LiCl at 37° C. for 30 min after 16 hr of labeling with [^3H]myo-inositol (3 uCi/ml) in serum-free medium containing 0.1% bovine serum albumin. The reactions were stopped by rapid aspiration and addition of cold 5% TCA. Water-soluble radiolabeled inositol trisphosphate (IP3) was isolated after ether extraction by ion-exchange chromatography (Guo, J., et al., Endocrinology 136(9):3884-3891 (1995)). […]

rat PTH-1 receptors = target: T2, rat PTH-1 receptors (Rattus norvegicus, UniProt P25961); experiment: PLC activation in COS-7 cells expressing rat PTH-1 receptors; conditions: up to 1000 nM
T2 construct: expressed in transfected cells
T2 sequence (P25961 27-591): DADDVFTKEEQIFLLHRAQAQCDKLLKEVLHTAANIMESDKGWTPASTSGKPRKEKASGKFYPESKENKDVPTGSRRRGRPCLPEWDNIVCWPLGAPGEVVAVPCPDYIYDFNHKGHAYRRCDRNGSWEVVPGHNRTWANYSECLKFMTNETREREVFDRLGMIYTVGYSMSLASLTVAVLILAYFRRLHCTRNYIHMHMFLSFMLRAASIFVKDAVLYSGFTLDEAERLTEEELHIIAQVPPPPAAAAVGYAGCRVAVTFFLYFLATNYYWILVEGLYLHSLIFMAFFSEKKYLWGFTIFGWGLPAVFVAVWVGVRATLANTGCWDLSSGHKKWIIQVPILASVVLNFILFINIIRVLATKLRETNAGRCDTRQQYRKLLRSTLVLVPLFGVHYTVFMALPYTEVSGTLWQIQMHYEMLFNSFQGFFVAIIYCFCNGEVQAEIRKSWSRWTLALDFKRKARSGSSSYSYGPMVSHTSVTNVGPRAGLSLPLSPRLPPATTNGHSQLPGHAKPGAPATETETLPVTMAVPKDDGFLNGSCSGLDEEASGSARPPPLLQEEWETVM
Experimental: as §1, §2

PLC activation (IP3 formation), result in words (human PTH-1 receptors [1]): did not activate PLC | PLC activation, result in words (human PTH-1 receptors [2]): did not activate PLC | PLC activation, result in words (rat PTH-1 receptors): did not activate PLC
Substance: Human PTH-(3-34): N-truncated human PTH peptide lacking Ser^1-Val^2 (SEIQLMHNLGKHLNSMERVEWLRKKLQDVHNF-NH2; UniProt P01270 34-65, looked up, fragment)
